Substrate: CCCCCC(O)/C=C/C=O
Assay: LC/MS of GSHNE conjugate, initial rate
Format: biochemical, Oncorhynchus kisutch
Conditions: 1 mM GSH, 30 °C, 10–150 μM HNE

B1: OlfGST pi; OkGST pi; GST pi (Oncorhynchus kisutch) (protein)
chain: MGPYTITYFGVRGRCGAMRIMMADQGQEWKEILMDFADWTKGDLKASCVFGQLPKFEDGGLVLYQSNAILRHLGRNHDAYGKDGKEAARIDMMCDGVEDLRLKYGKMIYQEYDTGKDQYIKDLPNHLDKFEAVMAKNKTGFLVGDKPSFADYSLFEVLLNHLVLCSSCLDTSPSLKSFVEKMSARPKIKAFLGSDAYKKLPINGNGKQ
Km: 160 ± 60 µM | Vmax: 0.5 µmol/min/mg | kcat: 0.37 ± 0.09 s⁻¹ | kcat/Km: 2300 ± 1100 M⁻¹ s⁻¹

— PMC3660137
